Results published in US20200123236A1.

B1: Bi-ScFv dVRC01-5X-PGT121 (bispecific antibody)
scFv: SLTQSPGTLSLSPGETAIISCRTSQYGSLAWYQQRPGQAPRLVIYSGSTRAAGIPDRFSGSRWGPDYNLTISNLESGDFGVYYCQQYEFFGQGTKVQVDIKGGGGSGGGGSGGGGSQVQLVQSGGQMKKPGESMRISCRASGYEFIDCTLNWIRLAPGKRPEWMGWLKPRGGAVNYARPLQGRVTMTRDVYSDTAFLELRSLTVDDTAVYFCTRGKNCDYNWDFEHWGRGTPVIVSSGGGGSGGGGSGGGGSGGGGSGGGGSSDISVAPGETARISCGEKSLGSRAVQWYQHRAGQAPSLIIYNNQDRPSGIPERFSGSPDSPFGTTATLTITSVEAGDEADYYCHIWDSRVPTKWVFGGGTTLTVLGGGGSGGGGSGGGGSQMQLQESGPGLVKPSETLSLTCSVSGASISDSYWSWIRRSPGKGLEWIGYVHKSGDTNYSPSLKSRVNLSLDTSKNQVSLSLVAATAADSGKYYCARTLHGRRIYGIVAFNEWFTYFYMDVWGNGTQVTVSSGSGHHHHHH
B2: 10E8 IgG (antibody, V domains shown)
VH: EVQLVESGGGLVKPGGSLRLSCSASGFDFDNAWMTWVRQPPGKGLEWVGRITGPGEGWSVDYAAPVEGRFTISRLNSINFLYLEMNNLRMEDSGLYFCARTGKYYDFWSGYPPGEEYFQDWGRGTLVTVSS
VL: SYELTQETGVSVALGRTVTITCRGDSLRSHYASWYQKKPGQAPILLFYGKNNRPSGVPDRFSGSASGNRASLTISGAQAEDDAEYYCSSRDKSGSRLSVFGGGTKLTVL

Columns and labels:
[1] = biological target: BG505 SOSIP.664 Env trimer (HIV-1); assay: negative stain EM of the complex, 6:1 molar ratio
[2] = biological target: HIV-1 Env of virus strain 6471.V1.C16 (HIV-1); assay: cell-based or functional assay

Binder	Bi-ScFvs bound per Env trimer (Bi-ScFv per Env trimer) [1]	IC50, neutralization of Env-pseudovirus on TZM-bl cells [2] [µg/mL]
B1	3	–
B2	–	4.98
